Among the data in PMC9765439, “Systems-Wide Dissection of Organic Acid Assimilation in Pseudomonas aeruginosa Reveals a Novel Path To Underground Metabolism” (mBio, 2022) are Km and kcat/Km values, retold here.

The Km is the concentration of substrate that gives half-maximal velocity. For orientation: kcat/Km means the second-order rate constant that governs catalysis at low substrate concentration.

Common to all, as to test: purified protein
What all share (type): biochemical, Pseudomonas aeruginosa

Substrate in series [1]: CCC(=O)SCCNC(=O)CCNC(=O)[C@H](O)C(C)(C)COP(=O)(O)OP(=O)(O)OC[C@H]1O[C@@H](n2cnc3c(N)ncnc32)[C@H](O)[C@@H]1OP(=O)(O)O
Particulars: 0.5 mM oxaloacetate, 50 mM HEPES pH 7.5, 0.1 M KCl, 0.54 M glycerol, 37 °C.

Substrate in series [2]: O=C(O)CC(=O)C(=O)O
The settings on record: 0.5 mM propionyl-CoA, 50 mM HEPES pH 7.5, 0.1 M KCl, 0.54 M glycerol, 37 °C.

Substrate in series [3]: CC(=O)SCCNC(=O)CCNC(=O)[C@H](O)C(C)(C)COP(=O)(O)OP(=O)(O)OC[C@H]1O[C@@H](n2cnc3c(N)ncnc32)[C@H](O)[C@@H]1OP(=O)(O)O
Particulars: 0.5 mM oxaloacetate, 50 mM HEPES pH 7.5, 0.1 M KCl, 0.54 M glycerol, 37 °C.

B1: PrpCPa (2-methylcitrate synthase, 2-MCS) (Pseudomonas aeruginosa PAO1) (protein)
chain: MAEAKVLSGAGLRGQVAGQTALSTVGQEGAGLTYRGYDVRDLAAAAIFEEVAYLLLYGELPNKQQLDAYLKKLQGQRDLPQALKEVLERIPKDAHPMDVMRTGASVLGTLEPELSFDQQRDVADRLLAAFPAIMTYWYRFTHEGQRIDCNSDEPTIGGHFLALLHGKKPSELHVKVMNVSLILYAEHEFNASTFTARVCASTLSDLYSCVTGAIGSLRGPLHGGANEAAMELIERFSSPQEATAELLKMLERKDKIMGFGHAIYKDSDPRNEVIKGWSKQLADEVGDKVLFAVSEAIDKTMWEQKKLFPNADFYHASAYHFMGIPTKLFTPIFVCSRTSGWTAHVFEQRANNRIIRPSAEYTGVEQRAFVPLEQR
notes: pET-19m, N-terminal TEV-cleavable His6 tag, cut; E. coli host; homodimer
Take B1: the figures for the Km in the series “purified protein [1]”, in “purified protein [2]” and in the series “purified protein [3]” were 45 µM, 15.65 µM and 28 µM, respectively. Besides, the kcat/Km in the series “purified protein [2]” is 228000 M⁻¹ s⁻¹; in “purified protein [3]” it was 114000 M⁻¹ s⁻¹.
